Experimental data as given in US20220056119A1 (Regeneron, published 2022).

T1: Activin A (human, UniProt P08476 311-426)
T1 sequence: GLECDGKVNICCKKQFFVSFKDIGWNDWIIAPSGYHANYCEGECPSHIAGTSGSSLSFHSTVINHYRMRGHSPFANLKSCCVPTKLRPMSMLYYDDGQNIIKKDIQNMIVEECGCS

T2: Activin B (human, UniProt P09529 293-407)
T2 chain: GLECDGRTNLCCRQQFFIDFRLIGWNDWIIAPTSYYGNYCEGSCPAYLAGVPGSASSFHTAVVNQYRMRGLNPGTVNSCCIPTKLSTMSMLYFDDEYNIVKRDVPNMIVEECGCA

T3: Activin AB (human, UniProt P08476 311-426; P09529 293-407)
T3 chain 1: T1 sequence
T3 chain 2: T2 chain

T4: Activin AC (human, UniProt P55103 237-352)
T4 sequence 1: T1 sequence
T4 sequence 2: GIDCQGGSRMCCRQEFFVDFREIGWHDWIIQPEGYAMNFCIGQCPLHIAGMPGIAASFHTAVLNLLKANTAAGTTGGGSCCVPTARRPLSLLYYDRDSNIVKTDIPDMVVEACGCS

T5: Activin B (homodimer of two inhibin betaB subunits) (human, UniProt P09529 293-407)
T5 construct: Bought (R&D Systems #659-AB-025/CF)
T5 chain: T2 chain

B1: H4H10429P (antibody, human IgG4, V domains shown)
VH: QVQLVESGGGVVQPGRSLRLSCVASGFTVSSYGIHWVRQAPGKGLEWVSVIWYDGRNKDYADSVKGRFTISRDNSKNTVYLEMKGLRAEDTALYYCARDKTGDFDSWGQGTLVTVSS
VL: DIQMTQSPSSLSASVGDRVTITCRASQNINSFLSWYQQKPGKAPKFLIYDASSIQSGAPSRFSGSGSGTDFTLTISSLQPEDFATYYCQQSYSSPFTFGQGTKLEIK
B2: H4H10436P2 (antibody, human IgG4, V domains shown)
VH: QVQLVESGGGVVQPGRSLRLTCVASGFTVSSYGMHWVRQAPGKGLEWVAVMFYDESKKYYADSVKGRFTISRDNSKNTLYLQMNSLRVEDTAVYYCARDEQLDFEYWGQGTLVTVSS
VL: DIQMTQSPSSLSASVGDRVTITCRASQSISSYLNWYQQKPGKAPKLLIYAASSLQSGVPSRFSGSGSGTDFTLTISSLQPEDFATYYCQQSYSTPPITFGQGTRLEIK
B3: H4H10440P2 (antibody, human IgG4, V domains shown)
VH: EVQLVESGGGVVQPGGSLRLSCAASTFTFDDFAMHWVRQAPGKGLEWVSLITGDGGSTYYADPVKGRFTISRDNSKNSLYLQMNSLRTEDTALYYCVKDWWIAARPDYYYYGMDVWGQGTTVTVSS
VL: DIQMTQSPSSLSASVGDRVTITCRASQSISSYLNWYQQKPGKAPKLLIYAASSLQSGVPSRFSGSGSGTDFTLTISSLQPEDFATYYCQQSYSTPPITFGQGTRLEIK
B4: H4H10423P (antibody, human IgG4, V domains shown)
VH: QVQLQQSGPGLLKPSQTLSLTCAISGDSVSSNSAAWSWIRQSPSRGLEWLGRTYYRANWFNDYALSVKSRITINPVTSTNHFSLQLHSVTPEDTAVYYCAREGALGYYFDSWGQGTLVTVSS
VL: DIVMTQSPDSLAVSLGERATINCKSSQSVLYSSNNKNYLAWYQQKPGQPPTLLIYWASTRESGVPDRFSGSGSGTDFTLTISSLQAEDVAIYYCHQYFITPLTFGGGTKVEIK

Key:
Activin A [1] = molecular target: T1, Activin A; test: cell-based or functional assay
Activin B = molecular target: T2, Activin B; test: cell-based or functional assay
Activin AB = molecular target: T3, Activin AB; test: cell-based or functional assay
Activin AC = molecular target: T4, Activin AC; test: cell-based or functional assay
Activin A [2] = molecular target: T1, Activin A; test: SPR, 5 nM Activin A + 15 nM binder over hActRIIA-hFc surface
Experimental: (§1) The binding signal (RU) was measured at 150 seconds after the start of the injection, and this signal was subtracted by the measured RU value for a negative control reference surface to determine the specific binding signal.

Activin A [3] = molecular target: T1, Activin A; test: SPR, 5 nM Activin A + 30 nM binder over hActRIIA-hFc surface
Experimental: as §1

Activin A [4] = molecular target: T1, Activin A; test: SPR, 5 nM Activin A + 60 nM binder over hActRIIA-hFc surface
Experimental: as §1

Activin A [5] = molecular target: T1, Activin A; test: SPR, 5 nM Activin A + 0.94 nM binder over hActRIIA-hFc surface
Experimental: as §1

Activin A [6] = molecular target: T1, Activin A; test: SPR, 5 nM Activin A + 1.88 nM binder over hActRIIA-hFc surface
Experimental: as §1

Activin A [7] = molecular target: T1, Activin A; test: SPR, 5 nM Activin A + 3.75 nM binder over hActRIIA-hFc surface
Experimental: as §1

Activin A [8] = molecular target: T1, Activin A; test: SPR, 5 nM Activin A + 7.50 nM binder over hActRIIA-hFc surface
Experimental: as §1

Activin A [9] = molecular target: T1, Activin A; test: SPR, 5 nM Activin A + 15 nM binder over Follistatin-288 surface
Experimental: as §1

Activin A [10] = molecular target: T1, Activin A; test: SPR, 5 nM Activin A + 30 nM binder over Follistatin-288 surface
Experimental: as §1

Activin A [11] = molecular target: T1, Activin A; test: SPR, 5 nM Activin A + 60 nM binder over Follistatin-288 surface
Experimental: as §1

Activin A [12] = molecular target: T1, Activin A; test: SPR, 5 nM Activin A + 7.5 nM binder over Follistatin-288 surface
Experimental: as §1

Activin A [13] = molecular target: T1, Activin A; test: SPR, 5 nM Activin A + 0.94 nM binder over Follistatin-288 surface
Experimental: as §1

Activin A [14] = molecular target: T1, Activin A; test: SPR, 5 nM Activin A + 1.88 nM binder over Follistatin-288 surface
Experimental: as §1

Activin A [15] = molecular target: T1, Activin A; test: SPR, 5 nM Activin A + 3.75 nM binder over Follistatin-288 surface
Experimental: as §1

Activin A [16] = molecular target: T1, Activin A; test: SPR, 5 nM Activin A + 0 nM binder (no inhibitor) over Follistatin-288 surface
Experimental: as §1

Activin A [17] = molecular target: T1, Activin A; test: SPR, 5 nM Activin A + 0.00 nM binder (no inhibitor) over hActRIIA-hFc surface
Experimental: as §1

[18] = molecular target: T5, Activin B (homodimer of two inhibin …); test: SPR (Biacore), mAb captured by anti-Fc, Activin B injected, 25 C
Experimental: Antibody-antigen association was monitored for 240 seconds while dissociation in buffer was monitored for 600 seconds. Kinetic association and dissociation rate constants were determined by processing and fitting the data using Scrubber software version 2.0c. Binding equilibrium dissociation constants (KD) and dissociative half-lives (t_{1/2}) were then calculated from the kinetic rate constants as: KD (M)=kd/kₐ and t_{1/2} (min)=[ln 2/(60*kd)]. (NB=no binding observed under the conditions used; NT=not tested).

Binder | IC50, inhibition of 100 pM Activin A in A204/CAGAx12-Luc luciferase bioassay (Activin A [1]) | IC50, inhibition of 50 pM Activin B in A204/CAGAx12-Luc luciferase bioassay (Activin B) | IC50, inhibition of 30 pM Activin AB in A204/CAGAx12-Luc luciferase bioassay (Activin AB) | IC50, inhibition of 4 nM Activin AC in A204/CAGAx12-Luc luciferase bioassay (Activin AC) | % bound RU w/ no inhibitor (Activin A [2]) | % bound RU w/ no inhibitor (Activin A [3]) | % bound RU w/ no inhibitor (Activin A [4]) | % bound RU w/ no inhibitor (Activin A [5]) | % bound RU w/ no inhibitor (Activin A [6]) | % bound RU w/ no inhibitor (Activin A [7]) | % bound RU w/ no inhibitor (Activin A [8]) | % bound RU w/ no inhibitor (Activin A [9]) | % bound RU w/ no inhibitor (Activin A [10]) | % bound RU w/ no inhibitor (Activin A [11]) | % bound RU w/ no inhibitor (Activin A [12]) | % bound RU w/ no inhibitor (Activin A [13]) | % bound RU w/ no inhibitor (Activin A [14]) | % bound RU w/ no inhibitor (Activin A [15]) | % bound RU w/ no inhibitor (Activin A [16]) | % bound RU w/ no inhibitor (Activin A [17]) | further results
B1 | 1.6e-10 M | 7.9e-08 M | 2.9e-10 M | 580 pM | 1% | 1% | 1% | 87% | 66% | 19% | 1% | 1% | 2% | 3% | 1% | 97% | 80% | 20% | 100% | 100% | –
B2 | 2e-10 M | 1.3e-10 M | 1.4e-10 M | 1300 pM | 2% | 2% | 2% | 75% | 55% | 16% | 2% | 1% | 2% | 2% | 1% | 78% | 61% | 16% | 100% | 100% | –
B3 | 2.8e-10 M | 5.2e-09 M | 4.3e-10 M | 750 pM | 4% | 3% | 3% | 75% | 52% | 17% | 6% | 2% | 1% | 0% | 4% | 76% | 57% | 17% | 100% | 100% | –
B4 | – | – | – | – | – | – | – | – | – | – | – | – | – | – | – | – | – | – | – | – | 50 nM Ag Bound (RU) [18]: 4.7 RU
